Measurements as given in patent US20230279079A1 (CHANG GUNG MEMORIAL HOSPITAL LINKOU, published 2023).

Columns and labels:
[1] = biological target: T1, SARS-CoV-2 nucleocapsid protein (SARS-CoV-2, UniProt P0DTC9 1-419); assay: ELISA on recombinant protein
T1 construct: also called N protein

SARS spike S1 subunit = biological target: T2, SARS spike S1 subunit (severe acute respiratory syndrome …, UniProt P59594 14-667); assay: ELISA
T2 construct: domain: S1 subunit

[2] = biological target: T3, Human coronavirus OC43 spike extracellular domain (human coronavirus OC43, UniProt P36334 14-1297); assay: ELISA
T3 construct: extracellular domain

[3] = biological target: T4, SARS-CoV-2 spike S2 subunit (SARS-CoV-2, UniProt P0DTC2 686-1213); assay: ELISA
T4 construct: domain: S2 subunit

[4] = biological target: T5, MERS spike extracellular domain (Middle East respiratory syndrome …, UniProt K9N5Q8 18-1296); assay: ELISA
T5 construct: extracellular domain

B1: EZ 9B (antibody, V domains shown)
VH: not shown
VL: SYELTQPPSVSVAPGQTARITCGGNNIGSKSVHWYQQKPGQAPVLVVYDDSDRPSGIPERFSGSNSGNTATLTISRVEAGDEADYYCQVWDSSSDHPSWVFGGGTKLTVL
- binding result [1]: binds

B2: EW 1A (antibody, V domains shown)
VH: EVQLVESGGGVVQPGSSLRLSCETSGFTFSGHAMHWVRQAPGKGLEWLAQIWFDGSEKYYADSVKGRFTISRDNSKKILYMQMNSLRVQDTAVYYCARDGQHLAPFAMDVWGQGTMVTVSS
VL: QSVLTQPASVSGSPGQSITISCTGTSSDVGASNRVSWYQHSPGEAPKLIIYQVTVRPSGVSDRFSGSKSGNTASLTISGLRTEDEAEYYCNSFVSGDSWVFGGGTKVTVL
- binding result [1]: binds

B3: EZ 11A (antibody, V domains shown)
VH: EVQLVESGGGLVQPGGSLRLSCAASGFTFSSYWMSWVRQAPGKGLEWVANIKQDGSEKYYVDSVKGRFTISRDNAKNSLYLQMNSLRAEDTAVYYCARDDYSGSYYWEFDYWGQGTLVTVSS
VL: QPVLTQSPSASASLGASVKLTCTLSSGHSSYAIAWHQQQPEKGPRYLMKLNSDGSHSKGDGIPDRFSGSSSGAERYLTISSLQSEDEADYYCQTWGTGIWVFGGGTKLTVL
- binding result [1]: binds

B4: FI 4A (antibody, V domains shown)
VH: EVQLVESGGGLVKPGGSLRLSCAASGFTFSRFSMNWVRQAPGKGLEWVSSISSSGSYIYFADSVKGRFTISRDNAKNSLYLQMNSLRAEDTAIYYCATYLFGDSHTYWGQGTLVTVSS
VL: QSVLTQPHSVSESPGKTVTISCTGSSGSIASNYVQWYQQRPGSAPTTVIYEDNQRPSGVPDRFSGSIDSSSNSASLTISGLKTEDEADYYCQSYDSSNLHWVFGGGTKLTVL
- binding result (SARS spike S1 subunit): no binding
- binding result [2]: no binding
- binding result [3]: no binding
- binding result [4]: no binding

B5: FD 4C (antibody, V domains shown)
VH: EVQLVESGPGLVKPSQTLSLTCTVSGGSISSGGYYWSWIRQHPGKGLEWIGYIYYSGSTYYNPSLKSRVTISVDTSKNQFSLKLSSVTAADTAVYYCARVRSSSSWYFDYWGQGTLVTVSS
VL: QSVLTQPASVSGSPGQSITISCTGTSSDVGGYNYVSWYQQHPGKAPKLMIYDVSKRPSGVSNRFSGSKSGNTASLTISGLQAEDEADYYCSSYTSKWVFGGGTKLTVL
- binding result [1]: binds

B6: EW 10C (antibody, V domains shown)
VH: EVQLVESGGGLVQPGGSLRLSCAASGFTFNKYKMTWVRQAPGKGLEWVANIKEDGSEKNYVDSVKGRFTISRDNARNSVYMHLNNLRVEDTAVYYCARGRTLGDWGQGTTVTVSS
VL: AIRMTQSPLSLPVTLGQPASISCRSSQSLVHSDGNTYLNWFQQRPGQSPRRLIYKVSNRDSGAPDRFSGSGSGTDFTLKISRVEAEDVGVYYCMQGTHWPPITFGPGTKVDIK
- binding result [1]: binds

B7: EZ 8C (antibody, V domains shown)
VH: EVQLVESGGGLVKPGGSLRLSCAASGFTFSSYTMNWVRQAPGKGLEWVSSFIANSDYKFYADSVKGRFTISRDNAKSSLYLQMNSLRAEDTAVYYCARELTSYGSHDAFDIWGQGTMVTVSS
VL: QSALTQPASVSGSPGQSITISCTGTSSDVGGYNYVSWYQQHPGKAPKLLIYEVTNRPSGVSDRFSGSKSANVASLTISGLQAEDEADYYCSSYTTTDSVVFGGGTKLTVL
- binding result [1]: binds

B8: FM 7B (antibody, V domains shown)
VH: EVQLVQSGAEVKKPGASVKVSCKASGYTFTSYAMHWVRQAPGQRLEWMGWINTGNGNTKYSQKFQGRVTITRDTSASTAYMELSSLRSEDTAVYYCARDPTYCSSTSCYPFSWFDPWGQGTLVTVSS
VL: NFMLTQPPSVSVAPGQTARITCGGNNIGSKSVHWYQQKPGQAPVLVVYDDSDRPSGIPERFSGSNSGNTATLTISRVEAGDEADYYCQVWDSTGDHSWVFGGGTKLTVL
- binding result (SARS spike S1 subunit): binds
- binding result [2]: no binding
- binding result [3]: no binding
- binding result [4]: no binding

B9: EY 12A (antibody, V domains shown)
VH: EVQLVESGPGLVKPSQTLSLTCAVSGGSISSGGYYWSWIRQPPGKGLELIGYTDYTGKTLYNPSLKSRLTISVDTSKNQFSLKLRSVTAADTAVYYCARGMTQDDILTGFNRPHWYFDLWGRGSLVTVSS
VL: QSVLTQPPSVSGAPGQRVTISCTGSSSNIGAGYDVHWYQQLPGTAPKVVIYRNMNRPSGVPDRFSGSKSGTSASLAITGLQAEDEADYYCQSFDSSLSDFVVFGGGTKLTVL
- binding result [1]: binds

B10: FD 5B (antibody, V domains shown)
VH: not shown
VL: QSVLTQPPSASGSPGQSVTISCTGTSSDAGGYNYVSWYQQHPGKAPKLMIYEVSKRPSGVPDRFSGSKSGNTASLTVSGLQAEDEADYYCSSYAGSNNPFVFGTGTKVTVL
- binding result [1]: binds

B11: FN 12A (antibody, V domains shown)
VH: QVQLVQSGAEVKKPGSSVKVSCKASGGTFSSYAISWVRQAPGQGLEWMGRIIPILGIANYAQKFQGRVTITADKSTSTAYMELSSLRSEDTAVYYCARSGCSSTSCPSNLYYYYYGMDVWGQGTTVTVSS
VL: QSVLTQPPSVSAAPGQKVTISCSGSSSNIGNNYVSWYQQLPGTAPKLLIYDNNKRPSGIPDRFSGSKSGTSATLGITGLQTGDEADYYCGTWDSSLSALVFGGGTKLTVL
- binding result (SARS spike S1 subunit): binds
- binding result [2]: binds
- binding result [3]: no binding
- binding result [4]: binds

B12: EZ 9C (antibody, V domains shown)
VH: EVQLVESGGGLVQPGGSLRLSCSASGFTLNGYAMHWVRQAPGKGLEYVSSLSNRGDNTRYAESVKGRFLISRDIAKDTLYLQMSSLRPEDTAVYYCGKGLLSASGGLPIDDWGQGTLVTVSS
VL: QSVLTQPPSVSAAPGQKVTISCSGSSSNIGNNYVSWYQQFPGTAPKLLIYDNNKRPSGIPDRFSGSKSGTSATLGITGLQTGDEAAYYCATWDSSLSAGVFGGGAKLTVL
- binding result [1]: binds

B13: EZ 11C (antibody, V domains shown)
VH: EVQLVESGAEVKKPGASVKVSCKVSGYTLTELSMHWVRQAPGKGLEWMGGFDPEDGETIYAQKFQGRVTMTEDTSTDTAYMELSSLRSEDTAVYYCATTTVTTPTANWFDPWGQGTLVTVSS
VL: QSALTQPPSVSAAPGQKVTISCSGSSSNIGNNYVSWYQQLPGTAPKLLIYENNKRPSGIPDRFSGSKSGTSATLGITGLQTGDEADYYCGTWDSSLRQVVFGGGTKLTVL
- binding result [1]: binds

B14: EW 9A (antibody, V domains shown)
VH: EVQLLESGGGVVQPGRSLRLSCAASGFTFSSYGMHWVRQAPGKGLEWVAVIWYDGSNKYYADSVKGRFTISRDNSKNTLYLQMNSLRAEDTAVYYCAKDMWALYDILTGYYTPYYYYGMDVWGQGTTVTVSS
VL: SYELTQPPSVSVSPGQTARITCSADALPKQYAYWYQQKPGQAPVLVIYKDSERPSGIPERFSGSSSGTTVTLTISGVQAEDEADYYCQSADSSGTYWVFGGGTKLTVL
- binding result [1]: binds

B15: EY 12B (antibody, V domains shown)
VH: EVQLVESGGDLVQPGRSLRLSCAASGFTFDYFAMHWVRQVPGKGLEWVSGIRWNSETIGYADSVKGRFTISRDNAKKSLYLEMNSLRSEDTAFYYCAKGRSGYGHTAFDVWGQGTMVTVSS
VL: QSALTQPPSVSGAPGQRVTISCTGSSSNIGANYDVHWYQRLPGTAPKLLIYDNNNRPSGVPDRFSGSKSGTSASLAIAGLQAEDEADYYCQSYDSSLSASVFGGGTKLTVL
- binding result [1]: binds

B16: FJ 10B (antibody, V domains shown)
VH: QVQLVQSGAEVKKPGESLRISCKGSGYSFTSYWISWVRQMPGKGLEWMGRIDPSDSYTNYSPSFQGHVTISADKSISTAYLQWSSLKASDTAMYYCARLDPRYGPDYYGMDVWGQGTTVTVSS
VL: AIRMTQSPSSLSASVGDRVTITCRASQSISSYLNWYQQKPGKAPKLLIHAASSLQSGVPSRFSGSGSGTDFTLTMSSLQPEDFATYYCQQSYSTPLTFGGGTKVEIR
- binding result (SARS spike S1 subunit): binds
- binding result [2]: no binding
- binding result [3]: no binding
- binding result [4]: no binding

B17: EZ 7A (antibody, V domains shown)
VH: EVQLVESGAEVKKPGESLKISCKGSGYSFTSYWIGWVRQMPGKGLEWMGIIYPGDSDTRYSPSFQGQVTISADKSISTAYLQWSSLKASDTAMYYCARGWVYRGFPYYGMDVWGQGTMVTVSS
VL: QSALTQPRSVSGSPGQSVTISCTGTSSDVGGYNYVSWYQQHPGKAPKLMIYDVSKRPSGVPDRFSGSKSGNTASLTISGLQAEDEADYYCCSYAGSYTLVFGGGTKLTVL
- binding result (SARS spike S1 subunit): binds
- binding result [3]: no binding
- binding result [4]: binds

B18: EZ 9A (antibody, V domains shown)
VH: EVQLVESGGGLVQPGESLRVSCAASGFTFSNYWMHWVRQVPGKGPVWVSIINTDGSITRYVDSVRGRFTISRDNAKNTVHLQMNSLTAEDTAIYYCARDVNRYPDYWGQGTLVTVSS
VL: QSALTQPASVSGSPGQSITISCTGTYSDVGYYNYVSWYQQQPGKAPKVIIHGDINRPFGVSNRFSGSKSGNTASLTISGLQAEDEADYFCCSYVNNGAWVFGGGTKLTVL
- binding result [1]: binds

B19: EY 9C (antibody, V domains shown)
VH: EVQLVESGGGLVKPGGSLRLSCAASEFTFSSYTLNWVRQAPGKGLEWVSSISTSSAYIYYADSVKGRFTISRDNAKKSLSLQMNSLTAEDTAVYYCATWGGAPFDYWGQGTMVTVS
VL: QSVLTQPASVSGSPGRSITISCTETSSDVGTYNLVSWYQQHPGKAPKLMIFDDNKRPSGVSNRFSGSKSGNTASLTISGLQAEDEADYYCCSYAGGRTFNVLFGGGTKLTVL
- binding result [1]: binds

B20: EW 5A (antibody, V domains shown)
VH: EVQLVESGGGLVQPGGSLRLSCSVSGFPFGTYAMHWVRQAPGKGLDYVSAINNDGSITYYADSVRGRFTVSRDNSENTLYLRLSGLRPDDTAIYYCVKDRGSVIRDFDVWGRGTLVTVSS
VL: QTVVTQEPSLTVSPGGTVTLTCASSTGTVTSDYYPNWFQQKPGQAPRPLIFGTAYRHSWTPARFSGSLLGGKAALTVSDVQPEDEADYYCLLYCGGGQLFGGGTKLTVL
- binding result [1]: binds
